Reference: patent publication EP4775675A1 (Shanghai Hongcheng Biopharmaceutical Co., Ltd., dated 2026)
Like-named read-outs stand apart in the source and are kept apart here.

T1: human BDCA-2 on cells (Jurkat-hBDCA-2 cells; human pDCs; human PBMCs) (human, UniProt Q8WTT0 1-213)
T1 sequence (looked up): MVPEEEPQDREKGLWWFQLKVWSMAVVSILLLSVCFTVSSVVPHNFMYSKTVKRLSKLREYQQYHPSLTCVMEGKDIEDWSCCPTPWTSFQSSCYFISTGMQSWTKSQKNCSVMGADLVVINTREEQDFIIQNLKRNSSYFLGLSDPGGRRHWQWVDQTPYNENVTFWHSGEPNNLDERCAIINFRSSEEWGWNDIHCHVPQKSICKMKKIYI

T2: cynomolgus monkey BDCA-2 on cells (Jurkat-cynoBDCA-2 cells; cynomolgus monkey pDCs) (cynomolgus monkey, UniProt A0A2K5UWP4 1-212)
T2 construct: whole, on cells
T2 sequence: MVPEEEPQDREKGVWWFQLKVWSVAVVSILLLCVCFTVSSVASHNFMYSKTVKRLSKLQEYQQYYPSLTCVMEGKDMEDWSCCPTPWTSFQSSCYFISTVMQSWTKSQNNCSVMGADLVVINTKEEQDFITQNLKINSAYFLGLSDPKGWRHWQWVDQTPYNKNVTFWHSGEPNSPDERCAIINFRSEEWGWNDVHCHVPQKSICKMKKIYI

T3: human CLEC4A (human, UniProt Q9UMR7 70-237, limits assumed)
T3 sequence (looked up): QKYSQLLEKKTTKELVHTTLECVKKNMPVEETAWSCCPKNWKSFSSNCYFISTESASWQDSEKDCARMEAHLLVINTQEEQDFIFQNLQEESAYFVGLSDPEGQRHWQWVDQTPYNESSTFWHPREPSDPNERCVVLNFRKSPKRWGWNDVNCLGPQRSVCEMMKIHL

T4: human CLEC4E (human, UniProt Q9ULY5 41-219, limits assumed)
T4 sequence (looked up): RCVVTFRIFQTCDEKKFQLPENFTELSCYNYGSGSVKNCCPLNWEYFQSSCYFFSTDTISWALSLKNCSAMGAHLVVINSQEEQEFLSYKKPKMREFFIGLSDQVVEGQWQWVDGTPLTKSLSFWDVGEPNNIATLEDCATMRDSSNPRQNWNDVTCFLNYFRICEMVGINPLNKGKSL

T5: human CLEC4D (human, UniProt Q8WXI8 39-215, limits assumed)
T5 sequence (looked up): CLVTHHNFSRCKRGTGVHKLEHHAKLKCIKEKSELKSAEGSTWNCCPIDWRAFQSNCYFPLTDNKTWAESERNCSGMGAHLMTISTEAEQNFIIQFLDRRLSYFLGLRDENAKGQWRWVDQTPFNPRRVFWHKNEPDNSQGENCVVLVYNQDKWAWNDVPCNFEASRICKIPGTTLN

T6: human CLEC6A (human, UniProt Q6EIG7 42-209, limits assumed)
T6 sequence (looked up): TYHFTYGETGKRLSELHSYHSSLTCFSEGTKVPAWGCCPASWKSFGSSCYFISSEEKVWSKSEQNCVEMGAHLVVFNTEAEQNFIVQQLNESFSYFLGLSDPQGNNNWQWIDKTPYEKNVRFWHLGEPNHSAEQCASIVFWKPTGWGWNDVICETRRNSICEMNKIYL

T7: Human BDCA-2 protein (soluble, Octet analyte) (human, UniProt Q8WTT0 45-213, limits assumed)
T7 construct: Soluble protein used as analyte in BLI
T7 sequence (looked up): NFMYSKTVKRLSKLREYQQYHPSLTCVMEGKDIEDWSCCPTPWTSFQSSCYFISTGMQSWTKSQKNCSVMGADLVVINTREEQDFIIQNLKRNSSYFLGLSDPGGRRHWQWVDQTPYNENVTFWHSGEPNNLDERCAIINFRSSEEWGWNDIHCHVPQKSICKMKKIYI

T8: cynomolgus monkey BDCA-2 protein (acro, CLC-C52H4) (cynomolgus monkey, UniProt A0A2K5UWP4 45-212)
T8 construct: Bought soluble protein; also called cyno BDCA-2
T8 sequence: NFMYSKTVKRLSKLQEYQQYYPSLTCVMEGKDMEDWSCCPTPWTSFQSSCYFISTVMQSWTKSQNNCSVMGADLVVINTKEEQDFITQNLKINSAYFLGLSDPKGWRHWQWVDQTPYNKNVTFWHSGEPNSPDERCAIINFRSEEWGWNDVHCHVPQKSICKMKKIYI


What was measured:
[1] = molecular target: T1, human BDCA-2 on cells (Jurkat-hBDCA-2 …); test: cell-based or functional assay
[2] = molecular target: T1, human BDCA-2 on cells (Jurkat-hBDCA-2 …); test: flow cytometry on Jurkat-hBDCA-2 cells
[3] = molecular target: T2, cynomolgus monkey BDCA-2 on cells …; test: flow cytometry on Jurkat-cynoBDCA-2 cells
[4] = molecular target: T1, human BDCA-2 on cells (Jurkat-hBDCA-2 …); test: cell-based or functional assay; remark: listed apart in the source
[5] = molecular target: T1, human BDCA-2 on cells (Jurkat-hBDCA-2 …); test: cell-based or functional assay; remark: listed apart in the source
[6] = molecular target: human FcγRIIIa (158V) on Jurkat-human FcγRIIIa (158V)-NFAT cells (human, UniProt P08637 17-254); test: cell-based or functional assay
human CLEC4A = molecular target: T3, human CLEC4A; test: ELISA, coated protein 1 µg/ml
human CLEC4E = molecular target: T4, human CLEC4E; test: ELISA, coated protein 1 µg/ml
human CLEC4D = molecular target: T5, human CLEC4D; test: ELISA, coated protein 1 µg/ml
human CLEC6A = molecular target: T6, human CLEC6A; test: ELISA, coated protein 1 µg/ml
[7] = molecular target: T1, human BDCA-2 on cells (Jurkat-hBDCA-2 …); test: flow cytometry on Jurkat-hBDCA-2 cells; remark: listed apart in the source
[8] = molecular target: T2, cynomolgus monkey BDCA-2 on cells …; test: flow cytometry on Jurkat-cynoBDCA-2 cells; remark: listed apart in the source
[9] = molecular target: T7, Human BDCA-2 protein (soluble, Octet …); test: BLI (Octet Red96e), antibody on anti-human IgG sensor, human BDCA-2 protein in solution
[10] = molecular target: T8, cynomolgus monkey BDCA-2 protein (acro, …); test: BLI (Octet Red96e), antibody on anti-human IgG sensor, cynomolgus monkey BDCA-2 protein in solution
[11] = molecular target: T1, human BDCA-2 on cells (Jurkat-hBDCA-2 …); test: cell-based or functional assay; remark: listed apart in the source

human FcγRIIIa (158V) on Jurkat-human FcγRIIIa (158V)-NFAT cells, sequence (P08637 17-254 F176V): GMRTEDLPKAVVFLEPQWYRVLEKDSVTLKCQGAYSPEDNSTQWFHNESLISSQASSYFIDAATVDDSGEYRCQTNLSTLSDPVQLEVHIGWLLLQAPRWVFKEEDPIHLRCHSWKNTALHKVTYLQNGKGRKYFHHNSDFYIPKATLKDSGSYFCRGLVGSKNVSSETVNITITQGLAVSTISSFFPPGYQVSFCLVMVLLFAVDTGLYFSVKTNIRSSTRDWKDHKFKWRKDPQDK

| EC50, inhibition of CpGA-induced type I interferon (IFNα) production in human PBMC cells [1] [ng/mL] | EC50 [2] [µg/mL] | EC50 [3] [µg/mL] | EC50, inhibition of CpGA-induced type I interferon (IFNα) production in human PBMC cells [4] [ng/mL] | EC50, inhibition of immune complex-induced type I interferon (IFNα) production by human pDC cells [5] [ng/mL] | EC50, activation of Jurkat-human FcγR IIIa (158V)-NFAT cell line with Jurkat-hBDCA-2 target cells [6] [ng/mL] | binding result (human CLEC4A) | binding result (human CLEC4E) | binding result (human CLEC4D) | binding result (human CLEC6A) | EC50 [7] [µg/mL] | EC50 [8] [µg/mL] | Kd [9] [nM] | koff [9] [s⁻¹] | kon [9] [M⁻¹ s⁻¹] | Kd [10] [nM] | koff [10] [s⁻¹] | kon [10] [M⁻¹ s⁻¹] | EC50, inhibition of CpGA-induced type I interferon (IFNα) production in human PBMC cells [11] [ng/mL] | Binder |
| --- | --- | --- | --- | --- | --- | --- | --- | --- | --- | --- | --- | --- | --- | --- | --- | --- | --- | --- | --- |
| 54.2 | 0.0968 | 0.107 | – | – | – | – | – | – | – | – | – | – | – | – | – | – | – | – | 17G6A2 (murine hybridoma monoclonal antibody) (antibody, V domains shown, also called hybridoma 17G6A2; hybridoma antibody 17G6A2) VH: EVQLVESGGDLVKPGGSLKLSCAASGFTFSSYGMSWVRQTPDKRLEWVATISSGDSYTYYPDSVKGRFTISRDNAKNTLYLQMSSLKSEDTAMYYCARQLYYSYGYYFDYWGQGTTLTVSS VL: DIVLTQSPASLAVSLGQRATISCRASESVSFHGTHLMHWYQQKPGQPPKLLIYAASNLESGVPARFSGSGSETDFTLNIHPVEEEDAATYFCQQSIEDPPTFGGGTKLEIK |
| – | – | – | 1.1 | 1 | 5 | no binding (tested: 10 µg/ml) | no binding (tested: 10 µg/ml) | no binding (tested: 10 µg/ml) | no binding (tested: 10 µg/ml) | 0.0595 | 0.0944 | 2.9 | 0.000523 | 179000 | 4.8 | 0.00064 | 130000 | – | 17G6A2_hzH1L7_hIgG1 (antibody, Humanized, human IgG1/kappa (hzVH01 + hzVL07)) heavy: not shown light: DIVLTQSPASLAVSPGQRATITCRASESVSFHGTHLMHWYQQKPGQPPKLLIYAASNLESGVPARFSGSGSETDFTLTINPVEAEDTANYYCQQSIEDPPTFGGGTKVEIKRTVAAPSVFIFPPSDEQLKSGTASVVCLLNNFYPREAKVQWKVDNALQSGNSQESVTEQDSKDSTYSLSSTLTLSKADYEKHKVYACEVTHQGLSSPVTKSFNRGEC |
| – | 0.189 | 0.233 | – | – | – | – | – | – | – | – | – | – | – | – | – | – | – | 2 | 164C11B8 (murine hybridoma monoclonal antibody) (antibody, V domains shown, Mouse antibody from hybridoma; also called hybridoma 164C11B8; hybridoma antibody 164C11B8) VH: DVILVESGGGLVKPGGSLKLSCAASGITFSTYTMSWLRQTPEKRLEWVATINSGGDNTYYPDSVKGRFTISRDNAKNNLYLQMSSLKSEDTALYYCATYRPYYYGSVLDYWGQGTTLTVSS VL: DIVLTQSPASLAVSLGQRATISCKASQSVDYDGNSYVNWYQQKPGQPPKLLIYGASNLESGIPDRFSGSGSGTDFTLNIHPVEEEDGATYYCQQSDEDPWTFGGGTKLEIR |
| – | – | – | 1.7 | – | – | no binding (tested: 10 µg/ml) | no binding (tested: 10 µg/ml) | no binding (tested: 10 µg/ml) | no binding (tested: 10 µg/ml) | 0.0701 | 0.106 | 3 | 0.000309 | 101000 | – | – | – | – | 17G6A2_hzH2L6_hIgG1 (antibody, V domains shown, Humanized, human IgG1/kappa (hzVH02 + hzVL06)) VH: EVQLVESGGGLVKPGGSLRLSCAASGFTFSSYGMSWVRQAPGKGLEWVATISSGDSYTYYPDSVKGRFTISRDNAKNSLYLQMNSLRAEDTAVYYCARQLYYSYGYYFDYWGQGTTVTVSS VL: DIVLTQSPASLAVSPGQRATITCRASESVSFHGTHLMHWYQQKPGQPPKLLIYAASNLESGVPARFSGSGSGTDFTLTINPVEANDAANYYCQQSIEDPPTFGGGTKVEIKR |
| – | – | – | 1.1 | – | – | no binding (tested: 10 µg/ml) | no binding (tested: 10 µg/ml) | no binding (tested: 10 µg/ml) | no binding (tested: 10 µg/ml) | 0.0222 | 0.0383 | 1.7 | 0.000261 | 154000 | – | – | – | – | 17G6A2_hzH2L8_hIgG1 (antibody, V domains shown, Humanized, human IgG1/kappa (hzVH02 + hzVL08)) VH: EVQLVESGGGLVKPGGSLRLSCAASGFTFSSYGMSWVRQAPGKGLEWVATISSGDSYTYYPDSVKGRFTISRDNAKNSLYLQMNSLRAEDTAVYYCARQLYYSYGYYFDYWGQGTTVTVSS VL: DIVLTQSPASLAVSPGQRATITCRASESVSFHGTHLMHWYQQKPGQPPKLLIYAASNLESGVPARFSGSGSETDFTLTINPVEANDAANYYCQQSIEDPPTFGGGTKVEIKR |
| – | – | – | 1.1 | – | – | no binding (tested: 10 µg/ml) | no binding (tested: 10 µg/ml) | no binding (tested: 10 µg/ml) | no binding (tested: 10 µg/ml) | 0.0608 | 0.0988 | 1.8 | 0.000311 | 174000 | – | – | – | – | 17G6A2_hzH2L7_hIgG1 (antibody, V domains shown, Humanized, human IgG1/kappa (hzVH02 + hzVL07)) VH: EVQLVESGGGLVKPGGSLRLSCAASGFTFSSYGMSWVRQAPGKGLEWVATISSGDSYTYYPDSVKGRFTISRDNAKNSLYLQMNSLRAEDTAVYYCARQLYYSYGYYFDYWGQGTTVTVSS VL: DIVLTQSPASLAVSPGQRATITCRASESVSFHGTHLMHWYQQKPGQPPKLLIYAASNLESGVPARFSGSGSETDFTLTINPVEAEDTANYYCQQSIEDPPTFGGGTKVEIKR |
